Laboratory results: the nanobody polyreactivity screen of Harvey et al. (2022)

Assay: yeast display, Sf9 membrane polyspecificity reagent, FACS + sequencing; frameworks hold sequencing errors
How it was run: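 Polyreactivity labels are assigned by the sorting gate from which each nanobody was recovered. The gates were low and high (top ~1%), set on anti-HA fluorescence for expression and streptavidin fluorescence for reagent binding. Before sorting, galactose-induced (36–48 hours) yeast display cells were stained for 1 hour at 4 °C with 10% biotinylated, detergent-solubilized Sf9 membrane reagent.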

Sequence | polyreactivity (PSR sort gate)
QVQLVESGGGLVQAGGSLRLSCAASGLIFTTNAMGSYRQAPGKEREFVAAISPSGGSTYYADSVKGRFTISRDNAKNTVYLQMNRLKPEDTAVYYCAARYSPVWHKYYYWGQGTQVTVSS | high polyreactivity
QVQLVESGGGLVQAGGSLRLSCAASGLIFTWYAMGWYRQAPGKERELVADISWSDDSTNYADSVKGRFTISRDNAKNTVYLQMNSLKPEDTAVYYCATQLDYGGRVGDADDYWGQGTQVTVSS | low polyreactivity
QVQLVESGGGLVQAGGSLRLSCAASGLIFTYYAMGWYRQAPGKERELVAAINYSGGSTYYADSVKGRFTISRDNAKNTVYLQMNSLKPEDTAVYYCAARRVTQTEGPMGYWGQGTQVTVSS | low polyreactivity
QVQLVESGGGLVQAGGSLRLSCAASGLIFTYYAMGWYRQAPGKERELVAAITSGGSTNYADSVKGRFTISRDNAKYTVYLQMNSLKPEDTAVYYCAADYDTGSERYEYWGQGSQVTVSS | low polyreactivity
QVQLVESGGGLVQAGGSLRLSCAASGLIFVAYAMGWYRQAPGKERELVAAISRSGGSTYYADSVKGRFTISRDNAKNTVYLQMNRLKPEDTAVYFCAKYYGARHVDDDYWGQGTQVTVSS | high polyreactivity
QVQLVESGGGLVQAGGSLRLSCAASGLIFVDNAMGWYRQAPGKERELVAAIDSGGSTNYADSVKGRFTISRDNAKNTVYLQMNSLKPEDTAVYYCAADWIYAPWYYQESVEYYYWGQGTQVTVSS | low polyreactivity
QVQLVESGGGLVQAGGSLRLSCAASGLIFVFNTLGWYRQAPGKEMELVAVITSGGSTNYADSVKGRFTISSDNEKNTVYLQMISLKPEDTAVYYCNVDRQVITGRYIGDYWGEGTQVTVSS | low polyreactivity
QVQLVESGGGLVQAGGSLRLSCAASGLIFVGYAMGWYRQAPGKERELVAAITSGGSTKYADSVKGRFTISRDNAKNTVYLQMNSLKAEDTAVYYCAASGWRNWWSARNYYWGQGTQVTVSS | low polyreactivity
QVQLVESGGGLVQAGGSLRLSCAASGLIFVGYAMGWYRQAPGKERELVAAITSGGSTKYADSVKGRFTISRDNAKNTVYLQMNSLKPEDTAVYYCAASGWRNWWSARNYYWGQGTLVTVSS | low polyreactivity
QVQLVESGGGLVQAGGSLRLSCAASGLIFVGYAMGWYRQSPGKERELVAAITSGGSTKYADSVKGRVTISRDNAKNTDYLQMNSLKPEDTAVYYCADSGCRNWWSARNYYWGQGTQVTVSS | low polyreactivity
QVQLVESGGGLVQAGGSLRLSCAASGLIFVHYAMGWYRQAPGKEREFVAAITWSGGSKYYADSVKGRFTISRDNAKNTVYLQMNSLKPEDTAVYYCAVDGFRPGTASFGYWGQGTQVTVSS | low polyreactivity
QVQLVESGGGLVQAGGSLRLSCAASGLIFVQYVMGWYRQAPGKERELVAAITEDGNTYYADSVKGRFTISRDNAKNTVYLQMNSLKPEDTAVYYCNAVLRSYDFWTGYGYWGQGTQVTVSS | low polyreactivity
QVQLVESGGGLVQAGGSLRLSCAASGLIFVTNAMGGYRQAPGKERELVAAITRSGGSTYYADSVKGRFTISRDNAKNTVYLQMNSLKQEDTAVYYCATGFHYAYGYWGQGTQVTVSS | low polyreactivity
QVQLVESGGGLVQAGGSLRLSCAASGLIFVWYAMGWYRQAPGKEREVVAAITSRGGSTYYADSVKGRFTISRDNAKNTVYLQMNSLKPEDTAVYYCAKYVRYDLGDYWGQGTQVTVSS | low polyreactivity
QVQLVESGGGLVQAGGSLRLSCAASGLIFVYNSMGWYRQAPGKERELVAGITSGGSTNYADSVKGRFTISRDNAKNTVYLQMNSLKPEDTAVYYCAAGYYDLYLWWGYDYWGQGTQVTVSS | high polyreactivity
QVQLVESGGGLVQAGGSLRLSCAASGLIFWKYAMGWYRQAPGKEREFVAAITYGGGGTYYADSVKGRFTISRDNAKNTVYFQMNSLKPEDTAVYYWAKRRYYYKGRVSYRQYGYWGQGTQVTVSS | high polyreactivity
QVQLVESGGGLVQAGGSLRLSCAASGLIFWYYAMGWYRQAPGKERELVAAINKIGGSTYYADSVKGRFTISRDNAKNTVYLQMNSLKPEDTAVYYCAADAPYYPVRRYYYWGQGTQVTVSS | low polyreactivity
